Measurements: patent US20070207507A1
Bridges are numbered along the chain shown (N, C = ends). Where no end group is shown, it is not given here.

B1: control phage clone A3-12 (f88-4/Cys6 phage displaying a 16 mer cysteine-constrained peptide in pVIII) (peptide)
peptide: MNYYCHQTTKTCRTHS
modifications: disulfide 5-12 (inferred); also: displayed on phage, cysteine-constrained, 99mTc-labelled
B2: phage clone A3-19 (f88-4/Cys6 phage displaying a 16 mer cysteine-constrained peptide in pVIII) (peptide)
peptide: NLIWCRKEFARCTSDM
modifications: disulfide 5-12 (inferred); also: displayed on phage, cysteine-constrained, 99mTc-labelled
B3: phage clone A3-21 (f88-4/Cys6 phage displaying a 16 mer cysteine-constrained peptide in pVIII) (peptide)
peptide: LKNYCRKCSNRCTPTG
modifications: disulfide (positions not given here); also: displayed on phage, cysteine-constrained, 99mTc-labelled
B4: phage clone A3-10 (f88-4/Cys6 phage displaying a 16 mer cysteine-constrained peptide in pVIII) (peptide)
peptide: NPGTCKDKWIECLLNG
modifications: disulfide 5-12 (inferred); also: displayed on phage, cysteine-constrained, 99mTc-labelled in binding assays

Assays:
myeloperoxidase [1] = test: 99mTc-phage incubated with 125I-myeloperoxidase, separated on a spin column / Sepharose 6B column
TAG-72 = test: 99mTc-labeled phage on LS-174T colon cancer cells expressing TAG-72
myeloperoxidase [2] = test: SE-HPLC on a Superose-12 column, 5 min incubation
myeloperoxidase [3] = test: SE-HPLC on a Superose-12 column, 2 hours incubation
myeloperoxidase [4] = test: SPR (Biacore 1000), biotinylated myeloperoxidase on a streptavidin chip, peptide at 1 uM, fitted curve

Chain of myeloperoxidase (P05164 165-745): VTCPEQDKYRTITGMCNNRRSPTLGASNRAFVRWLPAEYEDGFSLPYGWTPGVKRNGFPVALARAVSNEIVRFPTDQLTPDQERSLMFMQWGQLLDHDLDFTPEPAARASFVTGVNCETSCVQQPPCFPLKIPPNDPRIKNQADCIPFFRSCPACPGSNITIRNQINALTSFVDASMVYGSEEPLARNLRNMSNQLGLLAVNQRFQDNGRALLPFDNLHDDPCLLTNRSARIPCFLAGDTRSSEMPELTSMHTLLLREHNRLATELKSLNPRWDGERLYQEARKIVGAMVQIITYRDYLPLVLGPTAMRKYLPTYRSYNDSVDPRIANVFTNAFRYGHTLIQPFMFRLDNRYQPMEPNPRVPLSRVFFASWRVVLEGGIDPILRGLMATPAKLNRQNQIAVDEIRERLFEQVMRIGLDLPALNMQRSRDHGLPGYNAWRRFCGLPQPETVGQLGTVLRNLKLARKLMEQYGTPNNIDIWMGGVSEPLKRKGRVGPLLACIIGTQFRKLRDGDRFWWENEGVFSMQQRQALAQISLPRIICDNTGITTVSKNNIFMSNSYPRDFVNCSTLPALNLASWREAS

| Binder | Relative Binding (% bound after subtraction of control phage MPO-4) (myeloperoxidase [1]) [%] | Relative Binding (fold over control phage A3-12) (TAG-72) [fold] | further results |
| --- | --- | --- | --- |
| HVLGCSYATNSCAHNA (disulfide 5-12; also: phage labelled with 99mTc via MAG3) [phage clone MPO-6 (f88-4/Cys6 phage displaying a 16 mer cysteine-constrained peptide in pVIII)] | 5.8 |  |  |
| AMPVCSLDRKACTAYQ (disulfide 5-12; also: phage labelled with 99mTc via MAG3) [phage clone MPO-1 (f88-4/Cys6 phage displaying a 16 mer cysteine-constrained peptide in pVIII)] | 3.9 |  |  |
| B1 |  |  | Relative Binding (the control phage, the reference itself) (TAG-72): 1 fold |
| B2 |  | 1.5 |  |
| RSGQCHDDTWNCLACV (disulfide 5-12; also: phage labelled with 99mTc via MAG3) [phage clone MPO-17 (f88-4/Cys6 phage displaying a 16 mer cysteine-constrained peptide in pVIII)] | 8 |  |  |
| TVMLCNPMEQGCRWMC (disulfide 5-12; also: phage labelled with 99mTc via MAG3) [phage clone MPO-15 (f88-4/Cys6 phage displaying a 16 mer cysteine-constrained peptide in pVIII)] | 4.5 |  |  |
| RSGQCHDDTWNCLACVGGSGGGC (also: cysteine-constrained, Cys pairing not given here) [MPO-17 twenty-three mer synthetic polypeptide] |  |  | UV peak for the enzyme, % of total protein at 5 min of incubation (% of total protein) (myeloperoxidase [2]): 16; UV peak for the enzyme, % of total protein after 2 hours incubation (% of total protein) (myeloperoxidase [3]): 46; Kd (myeloperoxidase [4]): 900 nM |
| B3 |  | 1 |  |
| B4 |  | 4.3 |  |
